The experiment concerns the target full-length human VARP with a C-terminal 10xHis tag (human) (UniProt Q96NW4). Put plainly: BLI. On the technique in general: In BLI a coated tip is dipped into the sample, and binding shifts an interference pattern.

Chain of full-length human VARP with a C-terminal 10xHis tag (human) (Q96NW4 whole entry): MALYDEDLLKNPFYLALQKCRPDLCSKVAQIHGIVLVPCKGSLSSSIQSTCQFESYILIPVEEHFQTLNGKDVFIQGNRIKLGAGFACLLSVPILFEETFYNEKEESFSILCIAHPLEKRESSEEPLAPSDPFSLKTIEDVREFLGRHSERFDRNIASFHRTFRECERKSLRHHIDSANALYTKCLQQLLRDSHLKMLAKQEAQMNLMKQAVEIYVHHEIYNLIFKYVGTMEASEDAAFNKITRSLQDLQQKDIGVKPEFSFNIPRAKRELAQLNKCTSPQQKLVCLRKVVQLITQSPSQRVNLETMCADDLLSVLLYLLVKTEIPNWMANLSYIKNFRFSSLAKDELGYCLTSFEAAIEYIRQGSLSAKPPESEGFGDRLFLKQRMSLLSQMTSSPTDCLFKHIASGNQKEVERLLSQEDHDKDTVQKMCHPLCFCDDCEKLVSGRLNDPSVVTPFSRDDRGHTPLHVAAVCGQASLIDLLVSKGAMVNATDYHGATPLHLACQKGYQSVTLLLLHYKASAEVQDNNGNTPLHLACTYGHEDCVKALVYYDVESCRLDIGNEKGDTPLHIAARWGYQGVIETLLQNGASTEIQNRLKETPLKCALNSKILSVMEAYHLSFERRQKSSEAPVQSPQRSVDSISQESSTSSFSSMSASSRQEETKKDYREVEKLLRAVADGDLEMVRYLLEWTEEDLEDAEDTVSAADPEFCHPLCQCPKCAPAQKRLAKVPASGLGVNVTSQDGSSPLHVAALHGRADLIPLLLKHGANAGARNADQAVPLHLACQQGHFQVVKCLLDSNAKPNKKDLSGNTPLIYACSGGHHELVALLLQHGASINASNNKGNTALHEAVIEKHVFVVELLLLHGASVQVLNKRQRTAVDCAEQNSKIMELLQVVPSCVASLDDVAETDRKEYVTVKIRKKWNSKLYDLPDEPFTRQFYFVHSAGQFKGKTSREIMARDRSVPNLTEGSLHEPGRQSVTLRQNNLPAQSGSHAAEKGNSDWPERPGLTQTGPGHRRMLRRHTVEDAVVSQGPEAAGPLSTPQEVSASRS

For “Retromer heterotrimer (VPS26/VPS35/VPS29 subunits) (from UniProt O75436;Q96QK1;Q9UBQ0) (complex)”, the ka1 worked out at 5040 M⁻¹ s⁻¹, the ka2 is 0.0535 M⁻¹ s⁻¹, the kdis1 stood at 0.000363 s⁻¹ and the kdis2 was determined as 0.00891 s⁻¹.
